According to the DeepSol protein solubility set:

Experiment: soluble on expression in E. coli; label from the status in PepcDB or PDB records

Soluble on expression in E. coli, not soluble:
MGSDKIHHHHHHMGFDLDVEKKKENRNIPQANNLKIKVIGVGGAGNNAINRMIEIGIHGVEFVAVNTDLQVLEASNADVKIQIGENITRGLGAGGRPEIGEQAALESEEKIREVLQDTHMVFITAGFGGGTGTGASPVIAKIAKEMGILTVAIVTTPFYFEGPERLKKAIEGLKKLRKHVDTLIKISNNKLMEELPRDVKIKDAFLKADETLHQGVKGISELITKRGYINLDFADIESVMKDAGAAILGIGVGKGEHRAREAAKKAMESKLIEHPVENASSIVFNITAPSNIRMEEVHEAAMIIRQNSSEDADVKFGLIFDDEVPDDEIRVIFIATRFPDEDKILFPEGDIPAIYRYGLEGLL
MGSDKIHHHHHHMGKVLFVSGIDTDIGKSVATGYYARYLMQLGYSVITQKMVQTGCCDISSDILIHRKIQGVELADEDRKGETCCYLFDYPCSPYLAACLQNTYIDEKTIEKYTALLAQKYDYVLLEGAGGLMVPYAEGKTTLDYITAHNYPLILVTSGRLGSINHTLLSLEVCAHQNINVDTLIYNLYPPTDKLITQDTQQYFKSYLAKRFPTTKFMLMQKIDF
MGSDKIHHHHHHMGLASPWQVSISSFDAEKKRLDIHLDVAPGSTFCCPECGILKLQSFPWSGRDSGFTLLFEAMIMVMARSMAVKAIATIVGEHDTRIWRIVHHYVDQAREMEDYSAVTTVGVDEPSSKRGHNSVTLFADLARSKVLFATEGKDASTVERFRDDLVAHKGNPASVTECCSDMSPACISGIGSHFVNAHLSFDKFHVMQIINHAVDEVRRQEQQERPELKKSRYLWLKNQQNLKAKQRNRLEELSLAKLNLKTARADRMRLAFQECFNQPVTLAESFLKKWCFRAANSISPYPLETARSQDNDGWTHRASWAGI
MGSDKIHHHHHHMGTIWPDSLPQSKGAKYTLVADVIRKAIDTKELEVGVKLPPVRELAYKLGITPGTVARAYTILTDEGLLNAEVGRGTFVAPPKRPVLDDVWSRQLYLLDERDDDNVSLFSPRLADMGQVALIRECLQKVAQGDPAMFLNYPTRDAYAGVRQAVVDWMSDLSLGPLTADDIVLTHGGQSGLCVVFQTVFKGPKPVVLVEDLSYAGFRRAAELMRADVIGVRMDKWGIDPMSLDLTARQSPAQAICVSPEVQNPTGSRSPLERRKEVVEVARKHDLQIIEDDCYRMGEPQAPSYRALAPERGWHVSSVSKTLTPALRVGFAIAPEGQSAGLRRSAEYGYFGLAQPLAELTRLMLSDPRARDLARAVQRRMAEYVRVTVNTLGGFDLVWDSAVPFVWLRLPSGWRSAAFTRAAERAGVQVRSADEFALRDGRAPNAVRIAMNAHVSLERFETAMVRLRALLDNPPEQISV
MGSDKIHHHHHHMGVMKTPGVYIVEKNAFPNSVVEVATAVPAFIGFTQKAINGNKSLLNKPWRITSMAEFRRYYGEAPEPEFEIAEKPADSLEDAAIVMGDKSYVISQSNTKYLLYYSMMLFFQNGGGPCYIVSVGNYTNDVEAAKLLAGIPTLLKEQEPTMLAIPEAILLAEDDCISVQQASLAHCGGVMRNRVAILDVWNGHLDRQDPSGDCIESFRSKLGINYLDFSSAYYPWLHTTIVQDSDLSFKNIANTDVLIGLLKEEVTASFTDLDGLTDDQLASPSNKLRVAKRDQMLTEVDSLATVAGDAQIVLLNKTLSSMSPLYMSILLDIKGKLNLLPPSACMAGIYTMVDNARGVWKAPANVSLNAVVSPAVNISHDEQEDLNVTTQGKSINAIRTFIGEGTLVWGARTLDGNSLDWRYISVRRTMIMLEESIRLAAKAYVFEPNTANTWTTLNSMITNFLTGIWKRGGLAGSVPADAFSVSVGLGSTMTSEDILEGILRITVLVAVTRPAEFIEITFQQQMQKS
MGSDKIHHHHHHMGVTGNNYTKIFHRMYWDGTPTPTQLAQELSKHGLAITGISLWQLYNGTLQFPIYVATERQLKSTQWVTFHRRKQLRCCPAGVFSVEYPVLAITNLSDAQAIETLEGAYAKAQGAKFAAEHARQYVPQRNRELLRRAVVGVDSPPEKLLITALREQGIDCHANVLVGDYRWDIQLDRHRVLIEVDGFEFHRFKPENQDAFVRDRWKTNDATLRGYLCLHYAARSVYRHTAVIVDQVQAAIRVAPARGYPFDASAMWHRGCWKWS
MGSDKIHHHHHHMGVVRTDKWLKRYVVQWPKAQVAGEKFELQQKLIISLLKDAFHTDHLDELQQQLLGQGLFLPTDDIELSYRALQDRAIWHLVHKQYTELREKWKGPNVPIYLFPVNTANPTIREQLGMKMGVSYRDKIVLFIGEMTSDQDVQALVTHEYHHCCRLTQLKLYEGTMTLLESMVMEGLAEKAVAEEVGRDALAIWTSRYDKADLHSLWALLLEQRMMKGRDRHYPYLFGGVGGIPEWAGYYLGYRIVDQAMKNDPTLTTTSMMKMEAEAILQRSFSAKRGRAVAVRGREISRDHS
